Like-named read-outs stand apart in the source and are kept apart here.
Tests used:
human TGFβ1 = human TGFβ1 (human, UniProt P01137 279-390); test: cell-based or functional assay
[1] = molecular target: T1, recombinant human VEGF 165 (human, UniProt P15692-4 27-191); test: blocking ELISA: VEGF-165 coated on the plate, binding of recombinant human VEGFR-2-hu IgG1-His Tag is blocked
T1 construct: Bought protein
Procedure: Briefly, 0.5 ug/ml of recombinant human VEGF-165 (R&D #293-VE-050/CF) in carbonate-bicarbonate buffer was coated to the wells in a 96-well assay plate and incubated overnight at 4° C. The wells were then washed 3 times with 0.05% Tween 20 in PBS (wash buffer), blocked with 1% BSA in PBS for 1 hour at room temperature, and washed 3 times with wash buffer. 50 μl 5-fold serially diluted antibodies were then added to wells in the plate and incubated for 30 minutes at room temperature. […] 100 μl anti-His tag HRP (1:10,000) was then added and the plates were incubated for 40 mins at room temperature and washed 3 times with wash buffer.

[2] = molecular target: T2, human PD-1 on transfected CHO-K1 cells (human, UniProt Q15116 25-288); test: cell-based blocking assay, flow cytometry: binding of FITC labeled human PD-L1-Fc to human PD-1 transfected CHO-K1 cells is blocked
T2 construct: also called Human PD-1 transfected CHO-K1 cells
Procedure: Incubate for 15 mins before analysis with the iQue intellicyt system.

[3] = molecular target: T1, recombinant human VEGF 165; test: bio-layer interferometry, rhVEGF165
[4] = molecular target: T3, His tagged human Angiopoietin-2 (human, UniProt O15123 19-496, limits assumed); test: bio-layer interferometry, rhAng2-His
T3 construct: Antigen of the bio-layer interferometry experiments; also called Ang-2; Ang2
T3 sequence (looked up): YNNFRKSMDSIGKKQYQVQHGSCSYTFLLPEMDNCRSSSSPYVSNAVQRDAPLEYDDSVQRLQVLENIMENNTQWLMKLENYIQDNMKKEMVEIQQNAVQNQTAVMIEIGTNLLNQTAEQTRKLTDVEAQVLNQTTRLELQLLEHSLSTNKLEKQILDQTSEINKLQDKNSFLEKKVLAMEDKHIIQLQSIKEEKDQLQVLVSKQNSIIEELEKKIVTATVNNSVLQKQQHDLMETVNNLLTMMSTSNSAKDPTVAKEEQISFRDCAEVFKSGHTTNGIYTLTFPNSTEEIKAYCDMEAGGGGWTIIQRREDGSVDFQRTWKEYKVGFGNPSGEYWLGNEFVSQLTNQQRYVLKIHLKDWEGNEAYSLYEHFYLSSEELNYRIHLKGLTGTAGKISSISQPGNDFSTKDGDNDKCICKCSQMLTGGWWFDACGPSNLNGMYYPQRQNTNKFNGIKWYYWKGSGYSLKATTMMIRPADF

His tagged human PD-1 [5] = molecular target: T4, His tagged human PD-1 (human, UniProt Q15116 25-170); test: bio-layer interferometry, PD-1-His (R&D)
T4 construct: also called His tagged human PD-I; PD-1 protein

recombinant human Ang2 = molecular target: T5, recombinant human Ang2 (human, UniProt O15123 19-496); test: blocking ELISA: Ang2 coated on the plate, binding of recombinant human Tie2 is blocked
T5 construct: also called Ang2 (R&D)
T5 sequence (looked up): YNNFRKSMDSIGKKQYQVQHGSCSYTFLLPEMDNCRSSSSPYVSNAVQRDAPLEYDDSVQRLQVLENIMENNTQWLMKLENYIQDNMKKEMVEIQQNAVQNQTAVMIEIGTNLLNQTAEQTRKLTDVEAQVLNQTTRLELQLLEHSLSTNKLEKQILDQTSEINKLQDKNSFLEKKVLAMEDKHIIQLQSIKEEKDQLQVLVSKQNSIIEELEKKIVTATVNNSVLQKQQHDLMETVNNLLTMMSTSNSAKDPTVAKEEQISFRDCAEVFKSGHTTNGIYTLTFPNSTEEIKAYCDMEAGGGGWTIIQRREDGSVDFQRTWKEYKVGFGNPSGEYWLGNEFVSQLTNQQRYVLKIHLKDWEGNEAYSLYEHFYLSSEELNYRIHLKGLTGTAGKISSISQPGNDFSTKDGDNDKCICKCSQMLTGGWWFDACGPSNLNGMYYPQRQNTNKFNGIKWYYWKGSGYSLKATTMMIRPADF

[6] = molecular target: T2, human PD-1 on transfected CHO-K1 cells; test: cell-based blocking assay, flow cytometry: binding of FITC labeled human PD-L1-Fc to human PD-1 transfected CHO-K1 cells is blocked; remark: listed apart in the source
His tagged human PD-1 [7] = molecular target: T4, His tagged human PD-1; test: bio-layer interferometry, PD-1-His (R&D); column head prints KD (nM) but the cell carries E-09, and Kd/Ka of the same row gives this number in M
[8] = molecular target: T1, recombinant human VEGF 165; test: cell-based or functional assay
[9] = molecular target: T1, recombinant human VEGF 165; test: cell-based or functional assay; remark: listed apart in the source
[10] = molecular target: T1, recombinant human VEGF 165; test: blocking ELISA: VEGF 165 coated on the plate, binding of recombinant human VEGFR-2 is blocked
Procedure: (§1) In brief, 96-well assay plates were coated with 0.5 ug/ml of recombinant human VEGF 165 (R&D) in carbonate-bicarbonate buffer (pH 9.6) at 4° C. overnight followed by blocking with 1% BSA/PBS for 1 hour at room temperature. Serially diluted antibodies were then added to the plate and incubated for 30 minutes at room temperature. […] Followed by washing with Wash Buffer, goat anti-mouse IgG-HRP were added to the plate and incubated for 1 hour at room temperature. […] IC50 values were determined as the mid-point in the activity curve.

[11] = molecular target: T1, recombinant human VEGF 165; test: as above; remark: listed apart in the source
Procedure: as §1

T2 sequence (Q15116 25-288 limits assumed): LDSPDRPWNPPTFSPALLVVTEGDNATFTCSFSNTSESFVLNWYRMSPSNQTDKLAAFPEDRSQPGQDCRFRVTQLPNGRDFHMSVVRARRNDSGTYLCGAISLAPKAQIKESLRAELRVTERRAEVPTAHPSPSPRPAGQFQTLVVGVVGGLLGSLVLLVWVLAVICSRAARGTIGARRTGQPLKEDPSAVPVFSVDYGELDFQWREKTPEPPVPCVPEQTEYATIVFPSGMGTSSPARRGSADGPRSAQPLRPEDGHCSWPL
T4 sequence (Q15116 25-170 limits assumed): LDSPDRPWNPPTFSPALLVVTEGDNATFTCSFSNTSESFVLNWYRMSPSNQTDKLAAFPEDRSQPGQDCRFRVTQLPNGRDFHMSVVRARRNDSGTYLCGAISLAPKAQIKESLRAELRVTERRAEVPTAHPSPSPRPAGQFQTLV
T1 sequence (P15692 other isoform, or with tags, fused parts or gaps limits assumed): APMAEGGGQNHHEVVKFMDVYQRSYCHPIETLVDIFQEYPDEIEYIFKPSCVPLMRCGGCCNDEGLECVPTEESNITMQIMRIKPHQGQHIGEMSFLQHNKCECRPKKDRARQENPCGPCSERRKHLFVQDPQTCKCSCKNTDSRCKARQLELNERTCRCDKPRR
Chain of human TGFβ1 (P01137 279-390 limits assumed): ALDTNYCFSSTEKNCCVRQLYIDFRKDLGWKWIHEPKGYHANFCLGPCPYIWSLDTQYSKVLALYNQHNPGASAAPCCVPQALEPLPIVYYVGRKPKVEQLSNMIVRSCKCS

B1: TS-ZPB-3(2P17) (other)
heavy: QVQLVQSGAEVKKPGASVKVSCKASGYTFTSYYIHWVRQAPGQGLEWMGWIFPGSGNSKYNENFKGRVTLTADTSTSTVYMELSSLRSEDTAVYYCASETYDYGDYWGQGTLVTVSSASTKGPSVFPLAPCSRSTSESTAALGCLVKDYFPEPVTVSWNSGALTSGVHTFPAVLQSSGLYSLSSVVTVPSSSLGTKTYTCNVDHKPSNTKVDKRVESKYGPPCPPCPAPEFLGGPSVFLFPPKPKDTLMISRTPEVTCVVVDVSQEDPEVQFNWYVDGVEVHNAKTKPREEQFNSTYRVVSVLTVLHQDWLNGKEYKCKVSNKGLPSSIEKTISKAKGQPREPQVYTLPPSQEEMIPPHVQKSVNNDMIVTDNNGAVKFPQLCKFCDVRFSTCDNQKSCMSNCSITSICEKPQEVCVAVWRKNDENITLETVCHDPKLPYHDFILEDAASPKCIMKEKKKPGETFFMCSCSSDECNDNIIFSEEYNTSNPDTKNQVSLTCLVKGFYPSDIAVEWESNGQPENNYKTTPPVLDSDGSFFLYSRLTVDKSRWQEGNVFSCSVMHEALHNHYTQKSLSLSLGKGGGGSGGGGSGGGGSSDTGRPFVEMYSEIPEIIHMTEGRELVIPCRVTSPNITVTLKKFPLDTLIPDGKRIIWDSRKGFIISNATYKEIGLLTCEATVNGHLYKTNYLTHRQTNTIIDVVLSPSHGIELSVGEKLVLNCTARTELNVGIDFNWEYPSSKHQHKKLVNRDLKTQSGSEMKKFLSTLTIDGVTRSDQGLYTCAASSGLMTKKNSTFVRVHEK
light: DIQMTQSPSFLSASVGDRVTITCKASQNVGTNVAWYQQKPGKAPKALIYSASYRYSGVPSRFSGSGSGTEFTLTISSLQPEDFATYYCQQYYSYPYTFGQGTKLEIKRTVAAPSVFIFPPSDEQLKSGTASVVCLLNNFYPREAKVQWKVDNALQSGNSQESVTEQDSKDSTYSLSSTLTLSKADYEKHKVYACEVTHQGLSSPVTKSFNRGEC
- IC50; luciferase signal of TGFβ/SMAD SBE Reporter-HEK293 cells stimulated with human TGFβ1 (human TGFβ1): 2950 pM
- IC50 [1]: 7710 pM
- IC50 [2]: 2390 pM

B2: TS-ZPT-3L(2P17) (other)
heavy: QVQLVQSGAEVKKPGASVKVSCKASGYTFTSYYIHWVRQAPGQGLEWMGWIFPGSGNSKYNENFKGRVTLTADTSTSTVYMELSSLRSEDTAVYYCASETYDYGDYWGQGTLVTVSSASTKGPSVFPLAPCSRSTSESTAALGCLVKDYFPEPVTVSWNSGALTSGVHTFPAVLQSSGLYSLSSVVTVPSSSLGTKTYTCNVDHKPSNTKVDKRVESKYGPPCPPCPAPEFLGGPSVFLFPPKPKDTLMISRTPEVTCVVVDVSQEDPEVQFNWYVDGVEVHNAKTKPREEQFNSTYRVVSVLTVLHQDWLNGKEYKCKVSNKGLPSSIEKTISKAKGQPREPQVYTLPPSQEEMGGAQQEECEWDPWTCEHMGSGSATGGSGSTASSGSGSATHQEECEWDPWTCEHMGGTKNQVSLTCLVKGFYPSDIAVEWESNGQPENNYKTTPPVLDSDGSFFLYSRLTVDKSRWQEGNVFSCSVMHEALHNHYTQKSLSLSLGKGGGGSGGGGSGGGGSSDTGRPFVEMYSEIPEIIHMTEGRELVIPCRVTSPNITVTLKKFPLDTLIPDGKRIIWDSRKGFIISNATYKEIGLLTCEATVNGHLYKTNYLTHRQTNTIIDVVLSPSHGIELSVGEKLVLNCTARTELNVGIDFNWEYPSSKHQHKKLVNRDLKTQSGSEMKKFLSTLTIDGVTRSDQGLYTCAASSGLMTKKNSTFVRVHEK
light: DIQMTQSPSFLSASVGDRVTITCKASQNVGTNVAWYQQKPGKAPKALIYSASYRYSGVPSRFSGSGSGTEFTLTISSLQPEDFATYYCQQYYSYPYTFGQGTKLEIKRTVAAPSVFIFPPSDEQLKSGTASVVCLLNNFYPREAKVQWKVDNALQSGNSQESVTEQDSKDSTYSLSSTLTLSKADYEKHKVYACEVTHQGLSSPVTKSFNRGEC
- Kd [3]: 4.9 pM
- koff [3]: 5e-06 s⁻¹
- kon [3]: 1.02e+06 M⁻¹ s⁻¹
- Kd [4]: 700 pM
- koff [4]: 9.05e-05 s⁻¹
- kon [4]: 130000 M⁻¹ s⁻¹
- koff (His tagged human PD-1 [5]): 0.00147 s⁻¹
- kon (His tagged human PD-1 [5]): 382000 M⁻¹ s⁻¹
- IC50 (recombinant human Ang2): 600 pM
- IC50 [6]: 650 pM
- Kd (His tagged human PD-1 [7]): 3840 pM

B3: TS-ZPT-3S(2P17) (other)
heavy: QVQLVQSGAEVKKPGASVKVSCKASGYTFTSYYIHWVRQAPGQGLEWMGWIFPGSGNSKYNENFKGRVTLTADTSTSTVYMELSSLRSEDTAVYYCASETYDYGDYWGQGTLVTVSSASTKGPSVFPLAPCSRSTSESTAALGCLVKDYFPEPVTVSWNSGALTSGVHTFPAVLQSSGLYSLSSVVTVPSSSLGTKTYTCNVDHKPSNTKVDKRVESKYGPPCPPCPAPEFLGGPSVFLFPPKPKDTLMISRTPEVTCVVVDVSQEDPEVQFNWYVDGVEVHNAKTKPREEQFNSTYRVVSVLTVLHQDWLNGKEYKCKVSNKGLPSSIEKTISKAKGQPREPQVYTLPPSQEEMGGQEECEWDPWTCEHMGGTKNQVSLTCLVKGFYPSDIAVEWESNGQPENNYKTTPPVLDSDGSFFLYSRLTVDKSRWQEGNVFSCSVMHEALHNHYTQKSLSLSLGKGGGGSGGGGSGGGGSSDTGRPFVEMYSEIPEIIHMTEGRELVIPCRVTSPNITVTLKKFPLDTLIPDGKRIIWDSRKGFIISNATYKEIGLLTCEATVNGHLYKTNYLTHRQTNTIIDVVLSPSHGIELSVGEKLVLNCTARTELNVGIDFNWEYPSSKHQHKKLVNRDLKTQSGSEMKKFLSTLTIDGVTRSDQGLYTCAASSGLMTKKNSTFVRVHEK
light: DIQMTQSPSFLSASVGDRVTITCKASQNVGTNVAWYQQKPGKAPKALIYSASYRYSGVPSRFSGSGSGTEFTLTISSLQPEDFATYYCQQYYSYPYTFGQGTKLEIKRTVAAPSVFIFPPSDEQLKSGTASVVCLLNNFYPREAKVQWKVDNALQSGNSQESVTEQDSKDSTYSLSSTLTLSKADYEKHKVYACEVTHQGLSSPVTKSFNRGEC
notes: Trispecific antagonist: 2P17 variable domains, single copy of the trebananib peptide within CH3, aflibercept domain at the carboxy terminus by a 3xG4S linker
- Kd [3]: 5.2 pM
- koff [3]: 5.03e-06 s⁻¹
- kon [3]: 974000 M⁻¹ s⁻¹
- Kd [4]: 650 pM
- koff [4]: 8.66e-05 s⁻¹
- kon [4]: 134000 M⁻¹ s⁻¹
- koff (His tagged human PD-1 [5]): 0.00146 s⁻¹
- kon (His tagged human PD-1 [5]): 394000 M⁻¹ s⁻¹
- IC50 (recombinant human Ang2): 9340 pM
- IC50 [6]: 370 pM
- Kd (His tagged human PD-1 [7]): 3710 pM

B4: Bi-ZP-2 (bispecific antibody, human IgG1, kappa, N297A)
heavy: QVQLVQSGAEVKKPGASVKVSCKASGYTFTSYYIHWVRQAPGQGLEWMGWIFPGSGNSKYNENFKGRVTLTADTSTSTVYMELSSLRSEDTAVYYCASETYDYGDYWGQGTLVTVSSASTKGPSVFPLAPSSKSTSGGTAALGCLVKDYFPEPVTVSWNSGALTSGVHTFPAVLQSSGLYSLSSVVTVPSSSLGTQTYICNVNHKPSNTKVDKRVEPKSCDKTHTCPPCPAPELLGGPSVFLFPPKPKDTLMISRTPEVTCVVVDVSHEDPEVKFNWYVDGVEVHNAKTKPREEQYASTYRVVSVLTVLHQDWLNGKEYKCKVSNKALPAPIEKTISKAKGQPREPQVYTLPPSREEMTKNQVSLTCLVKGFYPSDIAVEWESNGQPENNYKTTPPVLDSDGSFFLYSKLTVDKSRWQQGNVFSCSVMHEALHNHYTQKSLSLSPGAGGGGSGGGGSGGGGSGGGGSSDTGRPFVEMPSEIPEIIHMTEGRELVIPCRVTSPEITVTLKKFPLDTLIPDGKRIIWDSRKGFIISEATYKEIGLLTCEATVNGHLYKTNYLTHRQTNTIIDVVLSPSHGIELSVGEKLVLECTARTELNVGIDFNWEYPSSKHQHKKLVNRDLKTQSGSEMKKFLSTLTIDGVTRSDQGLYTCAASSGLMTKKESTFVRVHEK
light: DIQMTQSPSFLSASVGDRVTITCKASQNVGTNVAWYQQKPGKAPKALIYSASYRYSGVPSRFSGSGSGTEFTLTISSLQPEDFATYYCQQYYSYPYTFGQGTKLEIKRTVAAPSVFIFPPSDEQLKSGTASVVCLLNNFYPREAKVQWKVDNALQSGNSQESVTEQDSKDSTYSLSSTLTLSKADYEKHKVYACEVTHQGLSSPVTKSFNRGEC
- IC50 (read off the curve) [8]: ~100 pM
- IC50 (VEGF-induced luciferase signal, cell based VEGF neutralization assay on VEGFR-2 reporter cells) [9]: 140 pM

B5: aflibercept peptide (positive control) (other)
chain: SDTGRPFVEMYSEIPEIIHMTEGRELVIPCRVTSPNITVTLKKFPLDTLIPDGKRIIWDSRKGFIISNATYKEIGLLTCEATVNGHLYKTNYLTHRQTNTIIDVVLSPSHGIELSVGEKLVLNCTARTELNVGIDFNWEYPSSKHQHKKLVNRDLKTQSGSEMKKFLSTLTIDGVTRSDQGLYTCAASSGLMTKKNSTFVRVHEK
- IC50 [10]: 200 pM
- IC50 [11]: 290 pM
